Biological target: soluble human neonatal Fc receptor (shFcRn; FcRn heavy chain ectodomain / beta2-microglobulin heterodimer) (UniProt P55899+P61769)
Experiment: SPR (BIAcore 3000)
Conditions: 25°C, 150 mM NaCl, HBS-P: 10 mM HEPES at pH 6.0 and pH 7.5 (same buffer at both pH)

Kd (pH 6.0) [nM]	koff (pH 6.0) [s⁻¹]	kon (pH 6.0) [M⁻¹ s⁻¹]	Kd (pH 7.5) [nM]	koff (pH 7.5) [s⁻¹]	kon (pH 7.5) [M⁻¹ s⁻¹]	koff (pH 7.4) [s⁻¹]	Substance
1.8	0.00024	130000	2	0.00024	100000	–	DX-2507, fully human anti-FcRn IgG1 (variant of DX-2504) relative to DX-2504: LC-CDR3 Cys->Ala (position number not printed); C-terminal Lys deleted
–	0.0177	–	–	–	–	0.0752	DX-2500 (germlined parental clone M90-F11), fully human anti-FcRn IgG1 germlined relative to M90-F11 (changes not printed)
1.5	0.00035	240000	1.9	0.00028	150000	–	DX-2504 (clone M161-B04), fully human anti-FcRn IgG1 Affinity-matured heavy-chain CDR variant of DX-2500/M90-F11 (substitutions not printed)
